Square brackets hold non-standard residues; d marks the D form. Ends that are not written are not given here. pGlu = O=C1CC[C@@H](C(=O)O)N1
Target: T1, mouse ADAMTS7 (Mus musculus, UniProt Q68SA9, E373Q)
T1 construct: Full-length mouse Adamts7 1-1857 (Uniprot Q68SA9, WT or E373Q catalytic mutant); expressed in transfected cells; host or cells: Human Coronary Artery Smooth Muscle Cells (HCA-SMC, Lonza), adenovirus 50 MOI
T1 sequence (Q68SA9 221-1657 E373Q): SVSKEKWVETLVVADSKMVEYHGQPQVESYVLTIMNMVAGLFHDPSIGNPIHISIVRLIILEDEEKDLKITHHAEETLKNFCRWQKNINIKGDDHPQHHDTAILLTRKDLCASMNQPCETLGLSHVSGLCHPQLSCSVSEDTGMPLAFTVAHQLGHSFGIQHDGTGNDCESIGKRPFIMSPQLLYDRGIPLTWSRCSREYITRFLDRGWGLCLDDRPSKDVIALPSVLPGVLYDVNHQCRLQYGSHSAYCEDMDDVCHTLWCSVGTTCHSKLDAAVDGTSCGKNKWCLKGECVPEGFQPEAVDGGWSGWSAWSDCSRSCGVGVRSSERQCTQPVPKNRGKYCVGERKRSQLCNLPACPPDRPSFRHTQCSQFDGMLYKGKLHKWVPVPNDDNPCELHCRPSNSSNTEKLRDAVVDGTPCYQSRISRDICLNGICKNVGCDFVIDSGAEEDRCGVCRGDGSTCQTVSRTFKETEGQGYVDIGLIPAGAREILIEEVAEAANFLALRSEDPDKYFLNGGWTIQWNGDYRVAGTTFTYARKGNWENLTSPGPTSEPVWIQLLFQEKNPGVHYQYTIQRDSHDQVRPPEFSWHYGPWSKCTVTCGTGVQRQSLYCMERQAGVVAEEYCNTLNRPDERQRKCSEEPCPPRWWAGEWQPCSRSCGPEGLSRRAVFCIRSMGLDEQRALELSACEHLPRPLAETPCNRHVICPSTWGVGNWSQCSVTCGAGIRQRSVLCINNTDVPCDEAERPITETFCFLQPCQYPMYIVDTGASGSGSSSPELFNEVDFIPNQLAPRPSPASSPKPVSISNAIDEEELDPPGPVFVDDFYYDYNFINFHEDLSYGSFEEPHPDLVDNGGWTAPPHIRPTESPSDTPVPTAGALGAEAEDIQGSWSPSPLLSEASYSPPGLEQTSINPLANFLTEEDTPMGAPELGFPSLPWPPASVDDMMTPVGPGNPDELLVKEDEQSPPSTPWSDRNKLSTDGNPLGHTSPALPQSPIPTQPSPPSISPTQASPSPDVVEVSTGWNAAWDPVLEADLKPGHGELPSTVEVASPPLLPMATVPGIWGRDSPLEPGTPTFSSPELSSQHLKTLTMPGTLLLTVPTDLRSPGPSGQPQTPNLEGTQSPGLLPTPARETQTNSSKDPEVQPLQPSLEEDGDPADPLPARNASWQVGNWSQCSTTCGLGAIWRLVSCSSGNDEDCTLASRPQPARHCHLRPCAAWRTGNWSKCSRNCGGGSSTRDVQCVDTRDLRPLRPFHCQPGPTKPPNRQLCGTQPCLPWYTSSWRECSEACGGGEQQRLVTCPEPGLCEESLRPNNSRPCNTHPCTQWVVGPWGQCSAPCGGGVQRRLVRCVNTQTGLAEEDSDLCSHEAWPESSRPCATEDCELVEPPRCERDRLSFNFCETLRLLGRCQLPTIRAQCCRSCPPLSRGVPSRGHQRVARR
Experiment: TMT10 TAILS N-terminomics, SMC1 experiment (Ad-mADAMTS7 WT vs EQ vs Luc, technical replicates, trypsin digest)
Format: cell-based
Settings: TAILS neo-N-terminal peptide abundance; log fold change, Ad-mADAMTS7 EQ over Luc
Description: ADAMTS7 Expression, Cell Culture and Preparation of the Secreted Proteins—Full-length mouse Adamts7 1-1857 (Uniprot Q68SA9, WT or E373Q catalytic mutant) with a carboxyl terminal 3xFLAG tag was used to generate custom adenoviruses as previously described. Adeno-CMV-Luciferase (Ad-Luc) from Vector Biolabs was used as a negative control. Human Coronary Artery Smooth Muscle Cells (HCA-SMC) were obtained from Lonza and expanded in Lonza SmGM-2 media in 15 cm tissue culture plates. Twenty-four hours before media collection, near confluent plates were transduced with 50 MOI adenovirus and switched to Lonza Basal SM media with volumes of 20 ml per 15 cm plate. Expression of the Flag tagged ADAMTS7 was confirmed from the media using western blot and detected using the anti-Flag M2-HRP antibody (Sigma, A8592). Collected media was processed by adding protease inhibitors (1 mM EDTA and 1 mM PMSF) and clarified by 500 g×5 min spin at 4 C to pellet cell debris. Cell media supernatants were then passed through a 0.22 um filter and kept chilled. Processed media was then concentrated 50-100× using 3 kDa Centricon Plus-70 filter unit, spun at 3,500 g×60 min at 4 C. Approximately 10% of the processed, concentrated media was set aside for total secretome proteolytic analysis. The remaining 90% of the processed, concentrated media was buffer exchanged into 50 mM HEPES pH 8.0, 150 mM NaCl (2×50 ml) using the 3 kDa Centricon Plus-70 filter unit and concentrated to >2 mg/ml to serve as input for the TAILS experiment. Secretome and TAILS input samples were stored at −80° C.
For the first experiment, referred to as SMC1, 120 ml of media from 6×15 cm dishes was pooled from each condition (Luc, WT, EQ) and processed to produce three separate inputs for the TAILS experiment. Luc, WT and EQ inputs from the SMC1 experiment were each divided into triplicate 400 ug samples to generate technical replicate TAILS data. For the second experiment, referred to as SMC2, media was processed separately in triplicate for each condition (Luc1, Luc2, Luc3, WT1, WT2, WT3, EQ1, EQ2, EQ3) using 60 ml of media from 3×15 cm dishes for each process replicate. Inputs from the SMC2 experiment used process replicates of 300 ug each to generate TAILS data. The third experiment used input from cultured Human umbilical vein endothelial cells (HUVEC) from Lifeline Cell Technology grown in VascuLife Media and transduced in Lifeline Basal EC (+bFGF2 10 ng/ml). The HUVEC experiment used the same strategy as the SMC2 experiment, with 40 ml of media from 2×15 cm dishes for each process replicate and used 200 ug each to generate TAILS data. Inputs for process replicate experiments were restricted to the lowest concentration from the 9 parallel samples for SMC2 or HUVEC.
TMT10 isotopic labeling and negative selection of non-labeled peptides-Sample preparation was performed based on the TAILS protocol from the Overall lab with some modifications. From a single experiment, nine parallel protein samples in 50 mM HEPES pH 8.0, 150 mM NaCl were separately denatured with guanidinium chloride (Sigma, G4505) to reach a final concentration of 2.5M guanidinium chloride and 250 mM HEPES and incubated at 65° C. for 15 min. Reduction was achieved through addition of tris(2-carboxylethyl) phosphine (TCEP) at a final concentration of […] and incubated at 65° C. for 45 min. Alkylation reaction was performed with addition of iodoacetamide (IAA, Sigma, A3221) to a final concentration of 10 mM IAA for 15 min at room temperature in the dark. Following denaturation, reduction and alkylation steps, ten percent of each of the nine parallel protein samples was removed and combined to serve as a pooled reference. Isobaric tags were added to free amine groups using the TMT10plex Isobaric Mass Tagging Kit (ThermoFisher, 90113) with TMT channels randomly assigned to the nine samples and TMT 131 assigned to the pooled reference. […]

“ACTB_21 (FAGDDAPR; listed as Homo sapiens)” was tested, and the logFC.mEQ.over.Luc was −0.08.
Work on “ACTB_105 (LTEAPLNPKANR; listed as Homo sapiens)” yielded a logFC.mEQ.over.Luc of −0.12.
In the case of “ADAM9_69 (VIQAEGKEHIIHLER; listed as Homo sapiens)”, the logFC.mEQ.over.Luc is reported as −0.10.
“AEBP1_37 (FLEGFLSELEPEPR; listed as Homo sapiens)” showed a logFC.mEQ.over.Luc of −0.18.
With “APLP2_579 (ISETPVDVR; listed as Homo sapiens)” the logFC.mEQ.over.Luc was 0.27.
With “CCDC80_66 (LEEPNLQPLQR; listed as Homo sapiens)” the logFC.mEQ.over.Luc was 0.14.
Substance “ECM1_134 (FGDQSHPEPESWNAAQHCQQDR; listed as Homo sapiens)” has a logFC.mEQ.over.Luc of 0.28.
“EFEMP1_124 (AVAGPEMQTGR; listed as Homo sapiens)” showed a logFC.mEQ.over.Luc of −0.59.
“EFEMP1_125 (VAGPEMQTGR; listed as Homo sapiens)” was tested, and the logFC.mEQ.over.Luc was −0.33.
“EFHD2_67 (QGIGEPQSPSR; listed as Homo sapiens)” showed a logFC.mEQ.over.Luc of −0.09.
With “EHBP1L1_298 (TAPTPAPR; listed as Homo sapiens)” the logFC.mEQ.over.Luc was −0.22.
“FBLN2_259 (ALGPPAPVQAKAR; listed as Homo sapiens)” showed a logFC.mEQ.over.Luc of −0.01.
For “FBLN2_260 (LGPPAPVQAKAR; listed as Homo sapiens)”, the logFC.mEQ.over.Luc was −0.74.
Substance “FBN1_29 (LEAGNVKETR; listed as Homo sapiens)” has a logFC.mEQ.over.Luc of 0.21.
“FBN1_53 (LKGPNVCGSR; listed as Homo sapiens)” gave a logFC.mEQ.over.Luc of −0.04.
Substance “FLNA_612 (SVEGPSQAKIECDDKGDGSCDVR; listed as Homo sapiens)” has a logFC.mEQ.over.Luc of 0.19.
Work on “FLNA_695 (FTVDAKHGGKAPLR; listed as Homo sapiens)” yielded a logFC.mEQ.over.Luc of −0.25.
“FLNA_1285 (LTQTGGPHVKAR; listed as Homo sapiens)” was tested, and the logFC.mEQ.over.Luc was −0.11.
In the case of “FN1_36 (MVQPQSPVAVSQSKPGCYDNGKHYQINQQWER; listed as Homo sapiens)”, the logFC.mEQ.over.Luc is reported as 0.39.
With “FN1_40 (QSPVAVSQSKPGCYDNGKHYQINQQWER; listed as Homo sapiens)” the logFC.mEQ.over.Luc was −0.40.
For “FN1_45 (VSQSKPGCYDNGKHYQINQQWER; listed as Homo sapiens)”, the logFC.mEQ.over.Luc was 0.49.
“FN1_47 ([code q]SKPGCYD[code n]GKHYQINQQWER; not fully specified; listed as Homo sapiens)” was tested, and the logFC.mEQ.over.Luc was 0.19.
For “FN1_281 (SGSGPFTDVR; listed as Homo sapiens)”, the logFC.mEQ.over.Luc was 0.56.
With “FN1_282 (GSGPFTDVR; listed as Homo sapiens)” the logFC.mEQ.over.Luc was −0.15.
Substance “FN1_886 (NQESTPVVIQQETTGTPR; listed as Homo sapiens)” has a logFC.mEQ.over.Luc of 0.49.
Work on “FN1_1143 (LTPGVEYVYTIQVLR; listed as Homo sapiens)” yielded a logFC.mEQ.over.Luc of 0.00.
Work on “FN1_1656 (SSSPVTGYR; listed as Homo sapiens)” yielded a logFC.mEQ.over.Luc of −0.08.
Substance “FN1_1731 (FTDVDVDSIKIAWESPQGQVSR; listed as Homo sapiens)” has a logFC.mEQ.over.Luc of −0.11.
For “FN1_2143 (FEEHGFR; listed as Homo sapiens)”, the logFC.mEQ.over.Luc was −0.13.
“FN1_2217 (FQDTSEYIISCHPVGTDEEPLQFR; listed as Homo sapiens)” showed a logFC.mEQ.over.Luc of 0.14.
“GALNT2_31 (LAGGAGGGAGR; listed as Homo sapiens)” gave a logFC.mEQ.over.Luc of −0.43.
Substance “GSN_35 (SQAGAPQGR; listed as Homo sapiens)” has a logFC.mEQ.over.Luc of 0.05.
Substance “GSN_413 (HIANVER; listed as Homo sapiens)” has a logFC.mEQ.over.Luc of −0.20.
“HEG1_49 (GAGLELQLER; listed as Homo sapiens)” gave a logFC.mEQ.over.Luc of 0.51.
With “HLA−C_52 (VDDTQFVR; listed as Homo sapiens)” the logFC.mEQ.over.Luc was 0.35.
For “HSPG2_275 (LLPGSVR; listed as Homo sapiens)”, the logFC.mEQ.over.Luc was 0.38.
“HSPG2_1937 (SSAGQQVAR; listed as Homo sapiens)” gave a logFC.mEQ.over.Luc of −0.15.
“HSPG2_2331 (ANLAYPAGSTQPIR; listed as Homo sapiens)” gave a logFC.mEQ.over.Luc of 0.03.
Work on “HSPG2_2333 (LAYPAGSTQPIR; listed as Homo sapiens)” yielded a logFC.mEQ.over.Luc of 0.01.
“HSPG2_2688 (VADSGEYVCR; listed as Homo sapiens)” gave a logFC.mEQ.over.Luc of 0.14.
“HSPG2_3250 (SPLPWQHR; listed as Homo sapiens)” showed a logFC.mEQ.over.Luc of 0.00.
For “HSPG2_3542 (IAHVELADAGQYR; listed as Homo sapiens)”, the logFC.mEQ.over.Luc was −0.07.
Substance “HSPG2_3647 ([pGlu]GKVKAFAHLQVPER; listed as Homo sapiens)” has a logFC.mEQ.over.Luc of −0.26.
For “HSPG2_3672 (SFLPLPTIKDAYR; listed as Homo sapiens)”, the logFC.mEQ.over.Luc was 0.06.
“HSPG2_3813 (SSGFIGCVR; listed as Homo sapiens)” showed a logFC.mEQ.over.Luc of −0.28.
“HSPG2_4004 (SAEPLALGR; listed as Homo sapiens)” was tested, and the logFC.mEQ.over.Luc was −0.37.
Substance “HSPG2_4021 (LNKDGSLR; listed as Homo sapiens)” has a logFC.mEQ.over.Luc of −0.02.
“HSPG2_4075 (GCVGEVSVNGKR; listed as Homo sapiens)” showed a logFC.mEQ.over.Luc of 0.02.
